Numbering of substitutions follows the chain as printed. Numbers in names are those of the source.
B1: DART-2 (bispecific antibody)
chain 1: QLVLTQSPSASASLGSSVKLTCTLSSGHKTDTIDWYQQQPGKAPRYLMKLEGSGSYNKGSGVPDRFGSGSSSGADWYLTISSLQSEDEADYYCGTDYPGNYLFGGGTQLTVLGGGGSGGGGEVQLVESGGGLVQPGGSLRLSCAASGFTFSTYAMNWVRQAPGKGLEWVGRIRSKYNNYATYYADSVKGRFTISRDDSKNSLYLQMNSLKTEDTAVYYCVRHGNFGNSYVSWFAYWGQGTLVTVSSGGCGGGKVAALKEKVAALKEKVAALKEKVAALKE
chain 2: QAVVTQEPSLTVSPGGTVTLTCRSSTGAVTTSNYANWVQQKPGQAPRGLIGGTNKRAPWTPARFSGSLLGGKAALTITGAQAEDEADYYCALWYSNLWVFGGGTKLTVLGGGGSGGGGQEQLVESGGGLVQPGGSLRLSCAASGFTFSDYYMSWVRQAPGKGLEWVATIYPSSGKTYYADSVKGRFTISSDNAKNSLYLQMNSLRAEDTAVYYCARDSYADDAALFDIWGQGTTVTVSSGGCGGGEVAALEKEVAALEKEVAALEKEVAALEK
notes: ROR1×CD3 two chain diabody; VL(2): R71W; VH: parental
B2: DART-17 (bispecific antibody)
chain 1: B1 chain 1 with W76R
chain 2: B1 chain 2 with N195Y
notes: ROR1×CD3 two chain diabody; VL: parental; VH(4): N76Y
B3: DART-28 (bispecific antibody)
chain 1: B1 chain 1 with S70I, Y97N
chain 2: B1 chain 2 with A215T
notes: ROR1×CD3 two chain diabody; VL(13): S66I/R71W/Y92N; VH(3): A93T
B4: DART-31 (bispecific antibody)
chain 1: B1 chain 1 with S70I, Y97N
chain 2: B1 chain 2 with F186L, N195D, A215T
notes: ROR1×CD3 two chain diabody; VL(13): S66I/R71W/Y92N; VH(7): F67L/N76D/A93T
B5: DART-24 (bispecific antibody)
chain 1: B1 chain 1 with W76R, Y97N
chain 2: B1 chain 2 with A215T
notes: ROR1×CD3 two chain diabody; VL(10): Y92N; VH(3): A93T
B6: DART-27 (bispecific antibody)
chain 1: B1 chain 1 with S70I
chain 2: B1 chain 2 with A215T
notes: ROR1×CD3 two chain diabody; VL(12): S66I R71W; VH(3): A93T
B7: DART-5 (bispecific antibody)
chain 1: B1 chain 1 with N57S, W76R
chain 2: B1 chain 2
notes: ROR1×CD3 two chain diabody; VL(5): N54S; VH: parental
B8: DART-3 (bispecific antibody)
chain 1: B1 chain 1 with K49N, W76R
chain 2: B1 chain 2
notes: ROR1×CD3 two chain diabody; VL(3): K49N; VH: parental
B9: DART-33 (bispecific antibody)
chain 1: QLVLTQSPSASASLGSSVKLTCTLSSGHKTDTIDWYQQQPGKAPRYLMKLEGSGSYNKGSGVPDRFSGSSSGADWYLTISSLQSEDEADYYCGTDYPGNYLFGGGTQLTVLGGGGSGGGGEVQLVESGGGLVQPGGSLRLSCAASGFTFSTYAMNWVRQAPGKGLEWVGRIRSKYNNYATYYADSVKGRFTISRDDSKNSLYLQMNSLKTEDTAVYYCVRHGNFGNSYVSWFAYWGQGTLVTVSSGGCGGGKVAALKEKVAALKEKVAALKEKVAALKE
chain 2: B1 chain 2 with V155I, V182A, F186L, N195D, A215T
notes: ROR1×CD3 two chain diabody
B10: DART-29 (bispecific antibody)
chain 1: B1 chain 1 with Y97N
chain 2: B1 chain 2 with F186L, N195D, A215T
notes: ROR1×CD3 two chain diabody; VL(11): R71W/Y92N; VH(7): F67L/N76D/A93T
B11: DART-16 (bispecific antibody)
chain 1: B1 chain 1 with W76R
chain 2: B1 chain 2 with A215T
notes: ROR1×CD3 two chain diabody; VL: parental; VH(3): A93T
B12: DART-12 (bispecific antibody)
chain 1: B1 chain 1 with S70I
chain 2: B1 chain 2
notes: ROR1×CD3 two chain diabody; VL(12): S66I/R71W; VH: parental
B13: DART-25 (bispecific antibody)
chain 1: B1 chain 1
chain 2: B1 chain 2 with F186L, N195D, A215T
notes: ROR1×CD3 two chain diabody
B14: DART-6 (bispecific antibody)
chain 1: B1 chain 1 with S70I, W76R
chain 2: B1 chain 2
notes: ROR1×CD3 two chain diabody; VL(6): S66I; VH: parental
B15: DART-11 (bispecific antibody)
chain 1: B1 chain 1 with Y97N
chain 2: B1 chain 2
notes: ROR1×CD3 two chain diabody; VL(11): R71W/Y92N; VH: parental
B16: DART-22 (bispecific antibody)
chain 1: B1 chain 1
chain 2: B1 chain 2 with F186L
notes: ROR1×CD3 two chain diabody; VL(2): R71W; VH(1): F67L
B17: DART-10 (bispecific antibody)
chain 1: B1 chain 1 with W76R, Y97N
chain 2: B1 chain 2
notes: ROR1×CD3 two chain diabody; VL(10): Y92N; VH: parental
B18: DART-20 (bispecific antibody)
chain 1: B1 chain 1
chain 2: B1 chain 2 with A215T
notes: ROR1×CD3 two chain diabody; VL(2): R71W; VH(3): A93T
B19: DART-14 (bispecific antibody)
chain 1: B1 chain 1 with W76R
chain 2: B1 chain 2 with F186L
notes: ROR1×CD3 two chain diabody; VL: parental; VH(1): F67L
B20: DART-4 (bispecific antibody)
chain 1: B1 chain 1 with S16G, W76R
chain 2: B1 chain 2
notes: ROR1×CD3 two chain diabody; VL(4): S17G; VH: parental
B21: DART-30 (bispecific antibody)
chain 1: B1 chain 1 with S70I
chain 2: B1 chain 2 with F186L, N195D, A215T
notes: ROR1×CD3 two chain diabody; VL(12): S66I/R71W; VH(7): F67L N76D A93T
B22: DART-26 (bispecific antibody)
chain 1: B1 chain 1 with Y97N
chain 2: B1 chain 2 with A215T
notes: ROR1×CD3 two chain diabody; VL(11): R71W/Y92N; VH(3): A93T
B23: DART-13 (bispecific antibody)
chain 1: B1 chain 1 with S70I, Y97N
chain 2: B1 chain 2
notes: ROR1×CD3 two chain diabody; VL(13): S66I/R71W/Y92N; VH: parental
B24: DART-23 (bispecific antibody)
chain 1: B1 chain 1
chain 2: B1 chain 2 with N195D
B25: DART-21 (bispecific antibody)
chain 1: B1 chain 1 with S70I, W76R
chain 2: B1 chain 2 with A215T
notes: ROR1×CD3 two chain diabody; VL(6): S66I; VH(3): A93T

What was measured:
[1] = biological target: T1, His-tagged soluble human ROR1 (shROR1-His) (human, UniProt Q01973 30-406); assay: SPR (Biacore), diabody captured via anti-E/K-coil, shROR1-His as analyte
T1 construct: also called ROR1 protein; immobilized ROR1; not shown: His-Tag
T1 sequence (Q01973 30-406): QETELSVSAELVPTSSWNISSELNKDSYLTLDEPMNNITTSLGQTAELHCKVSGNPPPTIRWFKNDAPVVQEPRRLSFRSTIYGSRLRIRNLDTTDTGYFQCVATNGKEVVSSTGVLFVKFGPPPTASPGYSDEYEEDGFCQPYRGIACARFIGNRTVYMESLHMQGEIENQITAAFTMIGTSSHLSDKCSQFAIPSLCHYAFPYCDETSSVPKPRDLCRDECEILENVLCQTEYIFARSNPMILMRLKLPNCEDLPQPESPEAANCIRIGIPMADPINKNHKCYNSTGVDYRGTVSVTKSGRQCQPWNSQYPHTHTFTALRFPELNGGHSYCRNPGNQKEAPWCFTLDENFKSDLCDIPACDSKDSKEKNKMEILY
Method: The binding kinetics of DART-1 to DART-6, DART-10 to DART-17, DART-20 to DART-33 was investigated using Biacore analysis in which ROR1 protein was passed over immobilized diabodies. Briefly, each diabody construct was captured on immobilized anti-E/K-coil surface and was incubated with shROR1-His at 25 and 100 nM, and the kinetics of binding were determined via Biacore analysis.

[2] = biological target: human ROR1 expressed on the surface of cancer cells (human, UniProt Q01973 30-937); assay: cell-based or functional assay
human ROR1 expressed on the surface of cancer cells, sequence (Q01973 30-937): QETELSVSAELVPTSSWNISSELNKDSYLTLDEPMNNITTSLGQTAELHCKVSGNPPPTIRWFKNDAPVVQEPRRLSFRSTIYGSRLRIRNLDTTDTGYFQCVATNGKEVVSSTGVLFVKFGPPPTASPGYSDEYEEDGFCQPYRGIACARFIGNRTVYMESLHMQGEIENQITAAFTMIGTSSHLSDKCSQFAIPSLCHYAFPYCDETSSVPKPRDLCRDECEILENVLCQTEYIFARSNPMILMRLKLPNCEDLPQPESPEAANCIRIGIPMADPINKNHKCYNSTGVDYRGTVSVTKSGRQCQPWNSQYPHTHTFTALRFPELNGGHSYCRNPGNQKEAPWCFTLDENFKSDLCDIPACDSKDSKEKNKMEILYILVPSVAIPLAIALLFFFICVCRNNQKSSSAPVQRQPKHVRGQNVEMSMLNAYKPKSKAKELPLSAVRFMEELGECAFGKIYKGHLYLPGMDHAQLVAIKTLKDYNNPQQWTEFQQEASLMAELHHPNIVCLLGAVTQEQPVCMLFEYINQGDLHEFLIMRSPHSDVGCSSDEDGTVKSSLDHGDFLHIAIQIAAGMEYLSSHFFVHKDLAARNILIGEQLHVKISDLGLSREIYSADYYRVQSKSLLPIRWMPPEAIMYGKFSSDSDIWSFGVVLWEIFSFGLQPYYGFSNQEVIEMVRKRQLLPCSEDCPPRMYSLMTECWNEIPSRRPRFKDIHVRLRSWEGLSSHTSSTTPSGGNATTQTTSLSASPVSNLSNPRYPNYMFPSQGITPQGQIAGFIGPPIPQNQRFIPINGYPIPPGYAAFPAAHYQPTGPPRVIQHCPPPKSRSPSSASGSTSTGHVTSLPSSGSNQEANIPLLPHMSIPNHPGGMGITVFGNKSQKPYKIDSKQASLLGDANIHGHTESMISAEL

Row | Binder | Kd [1] [nM] | further results
1 | B1 | 1.5 | fold enhancement of binding relative to DART-1 [1]: > 2 fold
2 | B2 | 3.7 | –
3 | B3 | 1.5 | –
4 | B4 | 0.9 | –
5 | B5 | 2.4 | –
6 | B6 | 1.2 | –
7 | B7 | 6 | –
8 | B8 | 4 | –
9 | B9 | 1.3 | –
10 | B10 | 1.3 | –
11 | B11 | 4.3 | –
12 | B12 | 1.7 | –
13 | B13 | 1.2 | MR(%) (maximum response), redirected cell killing of HBL-2 cells (LDH release) [2]: 27%; MR(%) (maximum response), redirected cell killing of JIMT-1 cells (LDH release) [2]: 40%; MR(%) (maximum response), redirected cell killing of Jeko-1 cells (LDH release) [2]: 38.2%
14 | B14 | 5.7 | –
15 | B15 | 1.2 | –
16 | B16 | 1.3 | –
17 | B17 | 2.7 | –
18 | B18 | 1.3 | –
19 | B19 | 4.5 | –
20 | B20 | 3.7 | –
21 | B21 | 1.2 | –
22 | B22 | 1.2 | –
23 | B23 | 1.4 | –
24 | B24 | – | MR(%) (maximum response), redirected cell killing of HBL-2 cells (LDH release) [2]: 25.6%; MR(%) (maximum response), redirected cell killing of JIMT-1 cells (LDH release) [2]: 37.3%; MR(%) (maximum response), redirected cell killing of Jeko-1 cells (LDH release) [2]: 36.4%
25 | B25 | 4.8 | –
